Measured values as given in article PMC4612432 (The journal of physical chemistry. B, 2013).
Positions count from the first letter of the chain named.

Columns and labels:
[1] = biological target: T1, Wild-type human lysozyme (human) (UniProt P61626); assay: ITC
T1 sequence: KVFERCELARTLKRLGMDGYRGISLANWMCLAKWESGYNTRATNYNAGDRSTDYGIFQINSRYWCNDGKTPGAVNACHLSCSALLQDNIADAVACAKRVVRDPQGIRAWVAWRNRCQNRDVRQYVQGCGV

[2] = biological target: T1, Wild-type human lysozyme (human); assay: SPR
Wild-type human lysozyme = Wild-type human lysozyme (Homo sapiens, UniProt P61626); assay: SPR

B1: cAb-HuL5G (VHH)
VHH: QVQLQESGGGSVQAGGSLRLSCSASGLSTTVMAWFRQAPGKEREGVAAIYTGDGFPYYADSVKGRFTISQDNAKNTVYLQMNSLKPEDTAMYYCAAKTGAFSYGSLWWMSRAYNHWGQGTEVTVSS
Kd [1]: 2500 nM | Kd [2]: 310 nM | koff [2]: 0.128 s⁻¹ | kon [2]: 410000 M⁻¹ s⁻¹

B2: cAb-HuL5 (VHH)
VHH: B1 VHH with S23E, T76R, V77M, K85E, E121Q
Kd (Wild-type human lysozyme): 460 nM | koff (Wild-type human lysozyme): 0.088 ± 0.009 s⁻¹ | kon (Wild-type human lysozyme): 190000 M⁻¹ s⁻¹
